Patent US20200330603A1, “PEPTIDES FOR RENAL THERAPY” (FRED HUTCHINSON CANCER RESEARCH CENTER, priority 2015, published 2020)
Ends that are not written are not given here.

What was measured:
[1] = Competitive renal uptake studies, fluorescence imaging of whole organs; format: in vivo, mice; conditions: 10 nmol iv, 4 hours, p-value of 0.015
Method: This example describes competitive uptake studies of peptides of this disclosure in kidneys. Peptides of this disclosure were compared to known kidney homers (“competitors”) to assess the efficiency and strength of kidney targeting. Three competitors were tested against a peptide of SEQ ID NO: 4, and kidney uptake was quantified by fluorescence imaging of whole organs on a Spectrum IVIS imager.
Kidneys from uninjected mice were used as a negative control. Fluorescence signal in each group was quantified to determine the average radiant efficiency in the kidneys from three mice per cohort. Data are shown as mean and error bars indicate standard deviation. A p-value of 0.0081 was calculated by a T-test, and the error bars indicate standard deviation. In this experiment, the unlabeled SEQ ID NO: 4 peptide competed with the SEQ ID NO: 4-AF647 as shown by decreased fluorescence and thus, decreased accumulation of the dye labeled peptide in the kidney. […] Fluorescence signal in each group was quantified to determine the average radiant efficiency in the kidneys from three mice per cohort. Data are shown as mean and error bars indicate standard deviation. Kidney uptake of a peptide of SEQ ID NO: 4-AF647 was not dampened by SEQ ID NO: 121 peptide even at the highest ratio of competitor. […] Fluorescence signal in each group was quantified to determine the average radiant efficiency in the kidneys from three mice per cohort. Data are shown as mean and error bars indicate standard deviation. A p-value of 0.015 was calculated by a Student's unpaired t-test.

[2] = Confocal imaging of kidneys 30 minutes after administration; format: in vivo, mice; conditions: 10 nmol
Text: Kidneys were isolated, sectioned, and imaged using a Zeiss confocal microscopy.

SEQ ID NO: 4-AF647: SEQ ID NO: 4 conjugated to AF647 (GSSCEPGRTFRDRCNTCRCGADGRSAACTLRACPNQ; not fully specified; cysteine pairing not given here)
renal uptake compared with control peptide-AF647 (FIG. 12) [1]: significantly higher extent than the control peptide | accumulation of dye in the kidney proximal tubules (FIG. 13) [2]: can deliver and accumulate dye when attached as a conjugate in the kidney proximal tubules
